According to patent US20240174741A1 (IMMUNOME, published 2024):

T1: IL-1α (human, UniProt P01583 1-271, limits assumed)
T1 sequence (looked up): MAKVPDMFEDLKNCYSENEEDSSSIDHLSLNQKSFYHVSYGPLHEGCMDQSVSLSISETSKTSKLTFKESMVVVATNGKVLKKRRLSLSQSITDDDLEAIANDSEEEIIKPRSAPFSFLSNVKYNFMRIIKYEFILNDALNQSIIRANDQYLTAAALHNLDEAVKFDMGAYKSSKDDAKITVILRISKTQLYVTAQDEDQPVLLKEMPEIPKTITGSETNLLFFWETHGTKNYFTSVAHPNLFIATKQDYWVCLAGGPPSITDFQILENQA

T2: IL-18 (human, UniProt Q14116 1-193, limits assumed)
T2 sequence (looked up): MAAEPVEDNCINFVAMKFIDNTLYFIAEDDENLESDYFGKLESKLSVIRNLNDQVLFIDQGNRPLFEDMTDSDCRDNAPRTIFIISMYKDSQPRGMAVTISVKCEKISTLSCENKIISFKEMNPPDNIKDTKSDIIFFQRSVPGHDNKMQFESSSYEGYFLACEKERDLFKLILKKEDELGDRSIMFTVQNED

T3: IL-36Ra (human, UniProt Q9UBH0 1-155, limits assumed)
T3 sequence (looked up): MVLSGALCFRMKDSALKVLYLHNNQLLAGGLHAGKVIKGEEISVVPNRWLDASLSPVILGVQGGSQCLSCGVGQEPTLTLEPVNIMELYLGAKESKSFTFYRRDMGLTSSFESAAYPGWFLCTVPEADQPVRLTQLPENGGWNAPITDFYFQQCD

T4: IL-36a (human, UniProt Q9UHA7 1-158, limits assumed)
T4 sequence (looked up): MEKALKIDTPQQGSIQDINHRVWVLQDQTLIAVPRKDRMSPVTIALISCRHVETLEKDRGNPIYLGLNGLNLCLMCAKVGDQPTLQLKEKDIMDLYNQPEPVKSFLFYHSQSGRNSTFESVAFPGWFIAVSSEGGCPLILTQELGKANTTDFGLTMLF

T5: IL-37 (human, UniProt Q9NZH6 1-218, limits assumed)
T5 sequence (looked up): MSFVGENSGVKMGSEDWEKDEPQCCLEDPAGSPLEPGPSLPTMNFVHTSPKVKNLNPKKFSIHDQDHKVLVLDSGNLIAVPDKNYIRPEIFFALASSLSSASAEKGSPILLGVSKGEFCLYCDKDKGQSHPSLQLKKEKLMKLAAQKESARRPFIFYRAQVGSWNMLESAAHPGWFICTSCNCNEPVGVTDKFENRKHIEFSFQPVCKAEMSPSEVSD

T6: IL-36b (human, UniProt Q9NZH7 1-164, limits assumed)
T6 sequence (looked up): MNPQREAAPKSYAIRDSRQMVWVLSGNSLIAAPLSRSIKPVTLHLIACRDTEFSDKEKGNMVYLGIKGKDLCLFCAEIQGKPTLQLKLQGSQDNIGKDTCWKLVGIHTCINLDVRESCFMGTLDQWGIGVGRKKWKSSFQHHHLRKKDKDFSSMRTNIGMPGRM

T7: IL-36g (human, UniProt Q9NZH8 1-169, limits assumed)
T7 sequence (looked up): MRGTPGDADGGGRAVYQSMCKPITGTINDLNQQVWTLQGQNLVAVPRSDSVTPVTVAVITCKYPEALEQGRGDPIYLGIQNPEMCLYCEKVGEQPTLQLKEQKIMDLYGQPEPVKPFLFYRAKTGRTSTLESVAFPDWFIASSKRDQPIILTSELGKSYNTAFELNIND

T8: IL-33 (human, UniProt O95760 1-270, limits assumed)
T8 sequence (looked up): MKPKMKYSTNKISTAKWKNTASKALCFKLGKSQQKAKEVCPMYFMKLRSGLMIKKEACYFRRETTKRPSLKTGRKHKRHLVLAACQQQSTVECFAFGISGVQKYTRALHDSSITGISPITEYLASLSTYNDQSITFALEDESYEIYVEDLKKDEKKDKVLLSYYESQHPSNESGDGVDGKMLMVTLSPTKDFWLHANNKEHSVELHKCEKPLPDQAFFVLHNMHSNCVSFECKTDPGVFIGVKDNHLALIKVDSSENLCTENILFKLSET

T9: human interleukin-38 (IL-38) (human, UniProt Q8WWZ1 1-152)
T9 construct: The Adipogen protein is called full length; also called IL1F10/IL38; IL1F10
T9 sequence (looked up): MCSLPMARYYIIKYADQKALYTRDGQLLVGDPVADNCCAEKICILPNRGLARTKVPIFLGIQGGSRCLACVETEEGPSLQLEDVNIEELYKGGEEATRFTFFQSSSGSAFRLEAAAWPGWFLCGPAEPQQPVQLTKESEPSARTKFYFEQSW

B1: CD1-M8 (antibody, V domains shown)
VH: EVQLQQSGPELVKPGASVKMSCKASGYTFTDYYIHWVKQSHGKGLEWIGYIFPNNGGNGYSQKFKGKATMTVDKSSSTAYMELRSLTSEDSAVYYCARGGYDAGFVYWGQGTLVTVSA
VL: DIVMSQSPSSLAVSAGEKVTMSCKSSQSLFNSGARKNFLAWYQQKPGQSPKLLIYWASTRESGVPDRFTGSGSGTDFTLTISSVQAEDLAVYYCKQSYYLITFGAGTKLELK
notes: Mouse monoclonal from a CD-1 mouse hybridoma
B2: IMM20130 (antibody, human IgG1, kappa, V domains shown)
VH: QVQLVQSGAEVKKPGASVKVSCKASGYSFINYGITWVRQVPGQGLEWMGWISAYNVKTKYAPKFQGRVNMNTDTSTRTAYMELRSLRSDDTAVYYCARDRDYDFWSGSAFDIWGQGTMVTVSS
VL: EIVLTQSPGTLSLSPGERVTLSCRASQSISTNYLAWYQQKPGQAPSLLIYGASSRATGIPDRFSGSGSGTDFTLTISRLEPEDFAVYYCQQYGSSPPRTFGQGTKLEIKR
notes: also called PR087-29B5 (parent hybridoma antibody)
B3: NZB-M8 (antibody, V domains shown)
VH: EVQLQQSGPELVKPGASVKISCKASGYSFTGYYMHWVKQSPEKSLEWIGVINPNTGGITYNQKFKAKATLNVDKSSSTAYMQLKSLTSEDSAVYYCARSMGVWGQGTLVTVSA
VL: DIVMTQAAPSVSVTPGESVSISCRSSKSLLHSNGNTYLYWFLQRPGQSPQLLIYRMSNLASGVPDRFSGSGSGTAFTLRISRVEAEDVGVYYCMQYLEYPFTFGSGTKLEIK
notes: Mouse monoclonal from an NZB/w mouse hybridoma

Experiments:
[1] = molecular target: T1, IL-1α; assay: CDI HuProt native protein microarray
Procedure: (§1) To confirm specificity to IL-38, several lead candidate antibodies (CD1-M3, CD1-M8, NZB-M8) were analyzed in a High-Spec Cross-reactivity Assay using native HuProt arrays (CDI Laboratories). […] of antibody was incubated overnight in a cold room, washed, and probed with anti-human secondary antibodies. Fluorescence intensity (F635) as an indicator of binding was measured for each spot. CDI software quantified the specificity of the antibody to each spot based on a Z-score. Z-score is defined as [F635−(Average F635 on array)]/(Standard deviation of F635 on array). S-score is defined as the difference between the Z-score of a given protein and the Z-score of the next highest protein.

[2] = molecular target: T10, IL-1β (human, UniProt P01584 1-269, limits assumed); assay: CDI HuProt native protein microarray
Procedure: as §1

[3] = molecular target: T11, IL-1Ra (human, UniProt P18510 26-177, limits assumed); assay: CDI HuProt native protein microarray
Procedure: as §1

[4] = molecular target: T2, IL-18; assay: CDI HuProt native protein microarray
Procedure: as §1

[5] = molecular target: T3, IL-36Ra; assay: CDI HuProt native protein microarray
Procedure: as §1

[6] = molecular target: T4, IL-36a; assay: CDI HuProt native protein microarray
Procedure: as §1

[7] = molecular target: T5, IL-37; assay: CDI HuProt native protein microarray
Procedure: as §1

[8] = molecular target: T6, IL-36b; assay: CDI HuProt native protein microarray
Procedure: as §1

[9] = molecular target: T7, IL-36g; assay: CDI HuProt native protein microarray
Procedure: as §1

[10] = molecular target: T8, IL-33; assay: CDI HuProt native protein microarray
Procedure: as §1

[11] = molecular target: T9, human interleukin-38 (IL-38); assay: CDI HuProt native protein microarray, IL-1 family members
Procedure: as §1

[12] = molecular target: T1, IL-1α; assay: as above
Procedure: as §1

[13] = molecular target: T10, IL-1β; assay: as above
Procedure: as §1

[14] = molecular target: T11, IL-1Ra; assay: as above
Procedure: as §1

[15] = molecular target: T2, IL-18; assay: as above
Procedure: as §1

[16] = molecular target: T3, IL-36Ra; assay: as above
Procedure: as §1

[17] = molecular target: T4, IL-36a; assay: as above
Procedure: as §1

[18] = molecular target: T5, IL-37; assay: as above
Procedure: as §1

[19] = molecular target: T6, IL-36b; assay: as above
Procedure: as §1

[20] = molecular target: T7, IL-36g; assay: as above
Procedure: as §1

[21] = molecular target: T8, IL-33; assay: as above
Procedure: as §1

[22] = molecular target: T9, human interleukin-38 (IL-38); assay: SPR, IMM20130 captured on anti-human Fc CM5 chip, IL-38 as analyte, 25 C, 1:1 model
Procedure: Binding of IMM20130 to IL-38 (NovusBio, catalog number NBP2-22645) was quantified by surface plasmon resonance (SPR). Briefly, IMM20130 was diluted in SPR running buffer (10 mM HEPES, pH7.4, 150 mM NaCl, 0.0005% Tween-20, 0.2% bovine serum albumin) to final concentrations of 150 nM and 25 nM and captured at four different surface densities on an anti-human Fc coated CM5 sensor chip. Surface densities ranged from 600 to 3200 RU. IL-38 (NovusBio, catalog number NBP2-22645) was diluted in SPR running buffer to a concentration of 600 nM and a 3-fold dilution series was run across the four different IMM20130 density surfaces. Data were collected at 25° C. Data from all four surfaces were fitted to a 1:1 interaction model yielding the rate constants depicted in Table 2.

T11 sequence (P18510 26-177 limits assumed): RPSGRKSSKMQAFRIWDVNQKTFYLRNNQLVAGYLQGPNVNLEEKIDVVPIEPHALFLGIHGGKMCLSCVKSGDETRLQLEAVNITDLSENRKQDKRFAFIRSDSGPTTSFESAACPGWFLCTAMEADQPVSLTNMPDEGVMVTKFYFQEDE

Binder	binding result [1]	binding result [2]	binding result [3]	binding result [4]	binding result [5]	binding result [6]	binding result [7]	binding result [8]	binding result [9]	binding result [10]	Z-score [11]	Z-score [12]	Z-score [13]	Z-score [14]	Z-score [15]	Z-score [16]	Z-score [17]	Z-score [18]	Z-score [19]	Z-score [20]	also measured
B1	no binding	no binding	no binding	no binding	no binding	no binding	no binding	no binding	no binding	no binding	142	-0.014	-0.017	0.003	-0.016	-0.019	0.012	-0.016	-0.01	-0.008	Z-score [21]: -0.014
B2																					Kd [22]: 13.6 nM; kon [22]: 4980 M⁻¹ s⁻¹
B3	no binding	no binding	no binding	no binding	no binding	no binding	no binding	no binding	no binding	no binding	34	-0.147	-0.143	-0.166	-0.132	-0.034	0.033	-0.113	-0.087	-0.143	Z-score [21]: -0.17
